Measurements reported in patent US20240277861A1, “ANTI-HEPATITIS B VIRUS AGENT TARGETING HOST FACTOR LIPG” (PUROTECH BIO, INC., priority 2021, published 2024).

Tests used:
HBV [1] = assay: HBV attachment, uptake and replication in Huh7-LIPG cells; type: cell-based; settings: Huh7-LIPG cells infected with HBV, 3 days after treatment
Description: (§1) HBV-DNA and cccDNA were quantified by qPCR as described below. Total DNA was extracted from cells using DNeasy Blood & Tissue Kit (Qiagen, Hilden, Germany). HBV-DNA was quantified by qPCR analysis as previously reported (Honda. M. et al., J. Infect. Dis., 213, 1096-1106, 2016). The extracted DNA (50 ng) was treated with 10 U of Plasmid safe DNase I (Epicentre, Madison. WI) at 37° C. for 60 minutes and then treated at 70° C. for 30 minutes for DNase inactivation, cccDNA was quantified by qPCR analysis as previously reported (Honda, M. et al., J. Infect. Dis. 213, 1096-1106, 2016). Quantitative RT-PCR was performed as described below. The GenElute™ Mammalian Total RNA Miniprep Kit (Sigma-Aldrich) was used for extraction of total RNA, and the High Capacity cDNA Reverse Transcription Kit (Applied Biosystems, Carlsbad, CA) was used for cDNA synthesis. The 7500 Real Time PCR System (Applied Biosystems) was used for RT-PCR. Primers 5′-[…]-3′ (SEQ ID NO: 31) and 5′-[…]-3′ (SEQ ID NO: 32) and a probe 5′-FAM-[…]-MGB-3′ (SEQ ID NO: 33) were used for pregenomic RNA. Primer pairs and probes for LIPG, NTCP. 18SrRNA, and ACTB were obtained from the TaqMan assay reagents library.
When the abundance of LIPG expression was compared among different liver cell lines. […] HepG2-NTCP-C4 cells with overexpression of FLAG-LIPG (HepG2-NTCP-C4-LIPG cells) were established (FIG. 2B), and the attachment and uptake of HBV into cells were assayed in the resulting cells. Heparin, which has been reported to inhibit HBV attachment (Schulze. A. et al., Hepatology 46: 1759-1768, 2007), and heparanase, an endo-β-D-glucuronidase that cleaves the heparan sulfate side chain in heparan sulfate proteoglycans (HSPGs) (Bame, KJ. Glycobiology,11: 91R-98R,2001), were used as control compounds. […] HBV attachment was detected by qPCR of HBV-DNA at 3 hours after HBV inoculation at 4° C. in the presence or absence of the compound (heparin or heparanase). […]

HBV [2] = assay: HBV attachment and uptake assay in HepG2-NTCP-C4-LIPG cells; type: cell-based; settings: pretreated 1 hour
Description: as §1
When the abundance of LIPG expression was compared among different liver cell lines. […] HepG2-NTCP-C4 cells with overexpression of FLAG-LIPG (HepG2-NTCP-C4-LIPG cells) were established (FIG. 2B), and the attachment and uptake of HBV into cells were assayed in the resulting cells. Heparin, which has been reported to inhibit HBV attachment (Schulze. A. et al., Hepatology 46: 1759-1768, 2007), and heparanase, an endo-β-D-glucuronidase that cleaves the heparan sulfate side chain in heparan sulfate proteoglycans (HSPGs) (Bame, KJ. Glycobiology,11: 91R-98R,2001), were used as control compounds. Cells (HepG2-NTCP-C4-LIPG cells and HepG2-NTCP-C4 control cells) were pretreated with these compounds for 1 hour and then with HBV at 4° C. for 3 hours to allow HBV to attach the cells, washed to wash out HBV, and further incubated at 37° C. for 12 hours to detect uptake of HBV (FIG. 2C). In addition, the cells were further cultured in a conventional culture medium for 3 days after HBV inoculation to detect HBV DNA and cccDNA in the cells (FIG. 2C). HBV attachment was detected by qPCR of HBV-DNA at 3 hours after HBV inoculation at 4° C. in the presence or absence of the compound (heparin or heparanase). HBV attachment (FIG. 2D), uptake (FIG. 2E), and replication of HBV DNA and cccDNA (FIGS. 2F and 2G) were all increased in the HepG2-NTCP-C4-LIPG cells compared to the HepG2-NTCP-C4 control cells.
Next, the effect of a LIPG inhibitor (GSK-264220A) on HBV attachment and uptake was examined. […] At the same time, this inhibitor had no effect on HepG2-NTCP-C4 control cells.

HBV [3] = assay: Anti-HBV activities of LIPG-binding peptides in PXB cells; type: cell-based; settings: for anti-HBV activity (effect to reduce HBV DNA and cccDNA copy numbers): HBV-infected PXB cells
Description: (§2) An infection source medium was prepared by adding the HBV-infected chimeric mouse serum (PhoenixBio), DMSO, and a PEG 8000 solution to the PXB cell culture medium (PhoenixBio) at final concentrations of 5 genome equivalents/cell, 2%, and 4%, respectively. Various synthesized peptides were diluted to different concentrations in this medium, and the resulting media were added individually to PXB cells (PhoenixBio). After the cells were left to stand in a 5% CO2 incubator at 37° C. for 20 to 28 hours, the medium was removed and the wells were washed once with PBS(−). DMSO and one of the various synthesized peptides were added to the PXB cell culture medium at a final concentration of 2% and different concentrations, respectively, and the resulting media were added individually to the PXB cells to perform medium exchange. This medium exchange was performed at 1, 5, and 9 days post infection and samples were collected at 14 days post infection.
(§3) SMI TEST™ M EX-R&D (Medical & Biological Laboratories) was used to extract DNA from the samples. The extracted DNA was used as a template for quantitative PCR of HBV-DNA. For cccDNA detection, the extracted DNA was treated with T5 exonuclease (New England Biolabs), and the resulting DNA was used as a template for quantitative PCR. The T5 exonuclease treatment was performed at 37° C. for 30 minutes, and the DNase was later inactivated by heating at 80° C. for 15 minutes. The following primer set was used for detection.
PXB cells, fresh human liver cells isolated from PXB mice (human hepatocyte chimeric mice), are human liver cells that maintain human liver functions at high levels and allow persistent infection with hepatitis B virus (HBV). Therefore, PXB cells were used to evaluate the anti-HBV activities of LIPG-binding peptides. LIPG-binding peptides were chemically synthesized because they were added extracellularly (Eurofins Genomics K.K.). Clones that had shown excellent results in the studies of Examples 10 and 1 (KIgk-LIPH4-23, KIgk-LIPH4-74, KIgk-LIPH4-15, KIgk-L1l 14-2. KIgk-LIPH14-14. KIgk-LIPH4-87) were selected for chemical synthesis of the peptides. […] Therefore, LIPH4-NTNA and LIPH4-NTNB, which share a common sequence with netrins and consist of 16 amino acids, were also chemically synthesized. The chemically synthesized peptides were dissolved in DMSO for use in HBV assays in PXB cells.
Next, the anti-HBV activity of full-length Netrin-1 was examined in PXB cells. A full-length human recombinant Netrin-1 protein consisting of 604 amino acid residues (molecular weight: 67.5 kDa, SEQ ID NO: 28) was purchased from R&D Systems. United States. A shRNA with the sequence […]ctcgagc[…] TTTTTTG (single underline: terminal sequences for cloning, lowercase letters: hairpin loop sequence) (SEQ ID NO: 64) was used to knock down the Netrin-1 gene.

[4] = molecular target: T1, binding between preS1 and heparan sulfate enhanced by LIPG (Homo sapiens, UniProt Q9Y5X9); assay: Plate assay of binding between preS1 peptide and immobilized heparan sulfate with FLAG-LIPG; settings: 10 or 100 nmol of peptide per well, concentration-dependent
T1 construct: FLAG
T1 sequence (Q9Y5X9 21-500): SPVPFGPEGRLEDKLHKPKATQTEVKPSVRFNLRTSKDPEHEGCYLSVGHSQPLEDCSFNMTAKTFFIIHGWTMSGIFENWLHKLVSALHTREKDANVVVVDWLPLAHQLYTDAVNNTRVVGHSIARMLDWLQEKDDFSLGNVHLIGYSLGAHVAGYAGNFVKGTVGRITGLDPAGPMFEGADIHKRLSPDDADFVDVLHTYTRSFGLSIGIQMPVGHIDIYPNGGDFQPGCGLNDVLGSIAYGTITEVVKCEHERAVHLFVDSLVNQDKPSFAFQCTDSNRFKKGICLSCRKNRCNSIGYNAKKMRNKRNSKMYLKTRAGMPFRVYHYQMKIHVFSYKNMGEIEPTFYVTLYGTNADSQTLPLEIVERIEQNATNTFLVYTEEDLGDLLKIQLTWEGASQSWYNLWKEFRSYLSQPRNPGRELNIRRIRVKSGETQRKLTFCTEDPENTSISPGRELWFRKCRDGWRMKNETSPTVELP
Description: FIG. 22-2 The effect of LIPG to promote HBV entry into cells and the effect of a LIPG-binding peptide and Netrin-1 to inhibit HBV entry into cells. E: A biotin-labeled form of heparan sulfate was added to a streptavidin-coated 96 well plate and left overnight at 4° C. to allow the heparan sulfate to bind to the plate. This plate was washed with TBS, and 10, 25, or 50 fmol of FLAG-LIPG was then added to each well to allow the reaction to proceed at room temperature for 2 hours. After the plate was washed, 10 or 100 nmol of LIPG-binding peptide LIPH4-NTNBS, LIPH4-23S, LIPH4-NTNBSA, or LIPH4-23SA was added to each well to allow the treatment to proceed at room temperature for 1 hour. Subsequently, the plate was washed, and 0.1 nmol of preS1-TMR was added to each well to allow the treatment to proceed at room temperature for another 1 hour. The plate was washed and then placed in a plate reader to measure the fluorescence of TMR.
Furthermore, PXB cells treated with Netrin-1 were further treated with FLAG-LIPG, and the uptake of the preS1 peptide was examined, to find that the enhancement of the uptake of the preS1 peptide by FLAG-LIPG was suppressed by Netrin-1 (FIG. 22D). In addition, a biotin-labeled heparan sulfate was immobilized on a streptavidin-coated plate and the preS1 peptide was added thereto to study the binding between the preS1 region of HBV and heparan sulfate present on the cell surface.

HBV [5] = assay: Anti-HBV activities of LIPG-binding peptides delivered into PXB cells-1 (scFv fusions); type: cell-based; settings: for HBV-DNA copy number: peptide concentrations (nM) indicated in FIG. 41B; for cccDNA copy number: peptide concentrations (nM) indicated in FIG. 41C
Description: as §2, §3
The anti-HBV activities of LIPG-binding peptides delivered into cells were evaluated using PXB cells and anti-ASGR single-chain antibody-LIPG-binding peptide fusions. Of the fusions prepared in Example 16, 10M-L23N, 10M-L23SN. 10M-L23SN-S39, and 10M-LNTSN were used. According to the timeline shown in FIG. 41A, the anti-HBV activities of the fusions were evaluated using the methods described in “(10-5) Infection experiment using PXB cells” and “(10-6) Quantification of HBV-DNA and cccDNA”.

In the case of CN(C)CCCN1c2ccccc2Sc2ccc(Cl)cc21 [chlorpromazine], the “LIPG-mediated increase in HBV replication (cccDNA)” value (HBV [1]) is reported as “no effect”.

In the case of CCN(c1nc(N)c(C(=O)N=C(N)N)nc1Cl)C(C)C [5-(N-ethyl-N-isopropyl)amiloride], the “LIPG-mediated increase in HBV replication (cccDNA)” value (HBV [1]) is reported as “no effect”.

heparin was tested, and the “increase in HBV attachment, uptake, and replication of HBV DNA and cccDNA in LIPG-overexpressing cells” value (HBV [2]) was “reduced this increase to the same level as the control”.

heparanase was tested, and the “increase in HBV attachment, uptake, and replication of HBV DNA and cccDNA in LIPG-overexpressing cells” value (HBV [2]) was “reduced this increase to the same level as the control”.

In the case of NARHNTAG (LIPH4-NTNBsA), the “anti-HBV activity (effect to reduce HBV DNA and cccDNA copy numbers)” value (HBV [3]) is reported as “as strongly as the original polypeptides”, the “activity in terms of copy number of HBV-DNA relative to LIPH4-NTNBs” value (HBV [3]; PXB cells, each concentration) is reported as “equal to or greater than that of LIPH4-NTNBs” and the “activity in terms of copy number of cccDNA relative to LIPH4-NTNBs” value (HBV [3]; PXB cells, each concentration) is reported as “equal to or greater than that of LIPH4-NTNBs”. For the same molecule, the “LIPG-mediated enhancement of binding between preS1 and heparan sulfate” value [4] was “inhibited”.

LNARDNTR (LIPH4-23SA) was tested, and the “anti-HBV activity (effect to reduce HBV DNA and cccDNA copy numbers)” value (HBV [3]) was “as strongly as the original polypeptides” and the “LIPG-mediated enhancement of binding between preS1 and heparan sulfate” value [4] was “inhibited”.

B1: 10M-L23SN-S39: fusion of ASGR3-10M scFv, cleavage sequence, LIPH4-23s, S39, nuclear localization signal (SEQ ID NO: 129) (protein)
chain: RVRRLNCRDNTRDYKDDDDKHHHHHHHPFVIGAGVLGALGTGIGGITTSTQFYYKLSQELNGDMERPAAKRVKLD
modifications: cleavage sequence + LIPH4-23S + Flag-tag + His-tag + S39 + nuclear localization signal
B1 was tested, and the “HBV-DNA and cccDNA copy numbers” value (HBV [5]; added concentrations 2.5 to 25 nM) was “remarkably reduced”, the HBV-DNA copy number (HBV [5]) was “remarkably reduced” and the cccDNA copy number (HBV [5]) was “remarkably reduced”.

B2: 10M-L23N: fusion of anti-ASGR scFv ASGR3-10M, cleavage sequence, LIPH4-23, S28, nuclear localization signal (SEQ ID NO: 127) (protein)
chain: RVRRLNCRDNTRPVMSAMTCDYKDDDDKHHHHHHHPFVIGAGVLGALGTGIGGITTSTQFYYKPAAKRVKLD
modifications: cleavage sequence + LIPH4-23 + Flag-tag + His-tag + S28 + nuclear localization signal
For B2, the HBV-DNA copy number (HBV [5]) was “remarkably reduced” and the cccDNA copy number (HBV [5]) was “remarkably reduced”.

B3: 10M-L23SN: fusion of ASGR3-10M scFv, cleavage sequence, LIPH4-23s, S28, nuclear localization signal (SEQ ID NO: 128) (protein)
chain: RVRRLNCRDNTRDYKDDDDKHHHHHHHPFVIGAGVLGALGTGIGGITTSTQFYYKPAAKRVKLD
modifications: cleavage sequence + LIPH4-23S + Flag-tag + His-tag + S28 + nuclear localization signal
B3 was tested, and the HBV-DNA copy number (HBV [5]) was “remarkably reduced” and the cccDNA copy number (HBV [5]) was “remarkably reduced”.
